Results: patent publication US20230127123A1 (Dana-Farber, published 2023)

B1: 1D4 (antibody, V domains shown)
VH: QVQLVQSGGGVVQPGRSLRLSCAASGFTFSSYAIHWVRQAPGKGLEWITTISYDGSNKYYADSVKGRFTISRDNPKNTLYLQMNSLRAEDTAVYYCARGFGGPDYWGQGTLVTVSS
VL: LPVLTQPSSLSASPGASASLTCTLRSGINVGTYRIYWYQQKPGSPPQYLLRYKSDSDKQQGSGVPSRFSGSKDASANAGILLISGLQSEDEADYYCMIWHSSAYVFGTGTKVTVL
notes: anti-PD-L1 clone; also called Ab 1D4
B2: 1A6 (antibody, V domains shown)
VH: QVQLVQSGGEVKKPGASVKVSCKASGYTLSSHGITWVRQAPGQGLEWMGWISAHNGHASNAQKVEDRVTMTTDTSTNTAYMELRSLTADDTAVYYCARVHAALYYGMDVWGQGTLVTVSS
VL: QSVLTQPPSVSVAPGQTARITCGGNNIGSKGVHWYQQKPGQAPVLVVYDDSDRPSGIPERFSGSNSGNTATLTISRVEAGDEADYYCQVWDSSSDHWVFGGGTKLTVL
notes: anti-PD-L1 clone; also called Ab 1A6
B3: 14C61 (antibody, V domains shown)
VH: EVQLVQSGGEVKKPGASVKVSCKASGYTLSSHGITWVRQAPGQGLEWMGWISAHNGHASNAQKVEDRVTMTTDTSTNTAYMELRSLTPDDTAVYYCARVHAALYYGMDVWGQGTLVTVSS
VL: SYELTQPPSVSVAPRQTAKITCTRDNIESRSVNWYQQRAGQAPAVIVYDDTERPSGITVRYSGSNSGNTATLTISRVEAGDEADYYCQVWDSSGDLWVFGGGTKLTVL
notes: anti-PD-L1 clone; also called Ab 14C61
B4: 1D1 (antibody, V domains shown)
VH: QVQLVQSGAEVKKPGASVKVSCKASGYTFTSYGISWVRQAPGQGLEWMGWISAYNGHASNAQKVEDRVTMTTDTSTNTAYMELRNLTTDDTAVYYCARVHAALYYGMDVWGQGTTVTVSS
VL: SYELTQPPSVSVAPGQTARITCGGDNIGSKGVHWYQQTPGQAPVLVVYDDSDRPSGIPERFSGSKSGNTATLTISRVEAGDEADYYCQVWDSRSDHWVFGGGTRVTVL
notes: anti-PD-L1 clone; also called Ab 1D1
B5: 1E1. (antibody, V domains shown)
VH: QVQLVQSGVEMKKPGASVRVSCKGSGYTFSSYGISWVRQAPGQGLEWMGWISAHNGHASNAQKLEDRVTMTTDTSTNTAYMELRSLTSDDTAVYYCARVHGALYYGMDVWGQGTTVTVSS
VL: SYELTQPPSVSVAPGQTARIPCGANNIGGKSVHWYQQKPGQAPVLVVYDDRDRPSGIPERFSGSNSGNTATLTISRVEAGDEADYYCQVWDSSSDHWVFGGGTKLTVL
notes: anti-PD-L1 clone; also called Ab 1E1
B6: 1A3 (antibody, V domains shown)
VH: EVQLVQSGAEVKKPGASVKVSCKASGYTLSSHGITWVRQAPGQGLEWMGWISAHNGHASNAQKVEDRVTMTTDTSTNTAYMELRSLTPDDTAVYYCARVHAALYYGMDVWGQGTLVTVSS
VL: LPVLTQPPSVSVAPGQTARITCGGNNIGSKSVHWYQQKPGQAPVLVVYDDSDRPSGIPERFSGSNSGNTATLTISRVEAGDEADYYCQVWDSSSDHWVFGGGTKLTVL
notes: anti-PD-L1 clone; also called Ab 1A3
B7: 1C6 (antibody, V domains shown)
VH: QVQLVQSGGEVKKPGASVKVSCKASGYTLSSHGITWVRQAPGQGLEWMGWISAHNGHASNAQKVEDRVTMTTDTSTNTAYMELRSLTPDDTAVYYCARVHAALYYGMDVWGQGTLVTVSS
VL: LPVLTQPPSVSVAPGQTARITCGGNNIGSKSVHWYQQKPGQAPVLVVYDDSDRPSGIPERFSGSNSGNTATLTINRVEAGDEADYYCQVWDSSSDHWVFGGGTKLTVL
notes: anti-PD-L1 clone; also called Ab 1C6
B8: 1A2 (antibody, V domains shown)
VH: QVQLVQSGGEVKKPGASVKVSCKASGYTLSSHGITWVRQAPGQGLEWMGWISAHNGHASNAQKVEDRVTMTTDTSTNTAYMELRSLTADDTAVYYCARVHAALYYGMDVWGQGTTVTVSS
VL: QSVLTQPPSVSVAPGQTARITCGGNNIGSKGVHWYQQKPGQAPVLVVYDDSDRPSGIPERFSGSNSGNTATLTISRVEAGDEADYYCQVWDSSSDHWVFGGGTKLTVL
notes: anti-PD-L1 clone; also called Ab 1A2
B9: 1F1 (antibody, V domains shown)
VH: QVQLVQSGGEVKKPGASVKVSCKASGYTLSSHGITWVRQAPGQGLEWMGWISAHNGHASNAQKVEDRVTMTTDTSTNTAYMELRSLTPDDTAVYYCARVHAALYYGMDVWGQGTLVTVSS
VL: QPVLTQPPSVSVAPGQTARITCGGDNIGSKGVHWLQQKPGQAPVLVVYDDRDRPSGIPERFSGSNSGSTATLTISRVEAGDEADYYCQVWDSSSDHWVFGGGTKLTVL
notes: anti-PD-L1 clone; also called Ab 1F1
B10: 1H2 (antibody, V domains shown)
VH: QVQLVQSGGGLVKPGGSLRLSCAASGFTFSSYSMNWVRQAPGKGLVWISRIISDGSATTYADSVKGRFTISRDNAKNTLYLQMNSLRAEDTGVYYCARDRSEGGFDPWGQGTLVTVSS
VL: SSELTQDPAVSVALGQTVRITCQGDSLRSYYASWYQQKPGQAPVLVIYGKNNRPSGIPDRFSGSTSGNTASLTITGAQAEDEADYYCNSRDISDNQWQWIFGGGTKLAVL
notes: anti-PD-L1 clone; also called Ab 1H2
B11: 1C1 (antibody, V domains shown)
VH: QVQLVQSGAEVKKPGASVKVSCKASGYTFTSYGISWVRQAPGQGLEWMGWTSPHNGLTAFAQILEGRVTMTTDTSTNTAYMELRNLTFDDTAVYFCAKVHPVFSYALDVWGQGTLVTVSS
VL: NFMLTQPHSVSESPGKTVTISCTRSSGSIASNYVQWYQQRPGSSPTTVIYEDNQRPSGVPDRFSGSIDTSSNSASLTISGLKTKDEADYYCQSYDGITVIFGGGTKLTVL
notes: anti-PD-L1 clone; also called Ab 1C1
B12: 1H5 (antibody, V domains shown)
VH: QVQLVQSGAEVKKPGSSVKVSCKASGGTFSRYALTWVRQAPGQGLEWMGGIIPIFGRANYAQKFQGRVTITADKSTSTAYMELGSLTSDDTAVYYCAEEGAFNSLAIWGQGTMVTVSS
VL: NFMLTQPHSVSGSPGETVTISCTRSSGSIASHFVQWYQQRPGSSPTTVIFGDDQRPSGVPDRISGSIDTSSNSASLSISGLKTEDEADYYCQSYDSSNHVVFGGGTKLTVL
notes: anti-PD-L1 clone; also called Ab 1H5
B13: 1C4 (antibody, V domains shown)
VH: QVQLVQSGAEVKKPGSSVKVSCKASGGTFSRYALTWVRQAPGQGLEWMGGIIPIFGRANYAQKFQGRVTITADKSTSTAYMELGSLTSDDTAVYYCAEEGAFNSLAIWGQGTMVTVSS
VL: NFMLTQPHSVSESPGKTVTISCTRSSGSIASNYVQWYQQRPGSAPTTVIFADNQRPSGVPARFSGSIDSSSNSASLTISGLKTEDEADYYCQSYDSSNHWVFGGGTQLTVL
notes: anti-PD-L1 clone; also called Ab 1C4
B14: 1G1 (antibody, V domains shown)
VH: EVQLVQSGAEVKKPGSSVRVSCKASGGTFSSYAISWVRQAPGQGLEWMGRIIPILGIANYAQKFQGRVTITADKSTSTAYMELSSLRSEDTAVYYCASGSIVGAAYAFDIWGQGTTVTVSS
VL: QSVLTQPPSVSVAPGKAANLNCGGKNIGGRVVHWYQQRPGQAPVLVIYDDTDRPSGIPERFSGSNSGNTATLTITDVEVGDEADYYCQVWDSRSDHPVFGGGTTLTVL
notes: anti-PD-L1 clone; also called Ab 1G1
B15: 1B4 (antibody, V domains shown)
VH: QVQLVQSGGGLVKPGGSLRLSCVGSDFAFSSAWMNWVRQAPGKGLEWVGRIKSKTDGETTDYAAPVKDRFIISRDDSKNTLYLEMNSLKTEDTGVYYCTTGGLGLVYPYYNYIDVWGEGTTVTVSS
VL: LPVLTQPPSASGTPGQRVTISCSGSSSNIGSNYVYWYQQLPGTAPKLLIYRNNQRPSGVPDRFSGSKSGTSASLAISGLRSEDEADYYCAAWDDSLNGLVFGTGTRVTVL
notes: anti-PD-L1 clone; also called Ab 1B4
B16: 1D2 (antibody, V domains shown)
VH: QVQLVQSGAEVKKPGSSVKVSCKASGGTFSSYAISWVRQAPGQGLEWMGGIIPIFGTANYAQKFQGRVTITADESTSTAYMELSSLRSEDTAVYYCARDGSGYDSAGMDDWGQGTLVTVSS
VL: QPGLTQPPSASGTPGQTVTISCSGSRSNIGSNYVYWYQQFPGTAPKLLIFSNNQRPSGVPDRFSGSKSGTSASLAISGLRSEDEADYYCAVWDDSLSGVVFGGGTKLTVL
notes: anti-PD-L1 clone; also called Ab 1D2

biological target: PD-L1 (antigen of the kinetic measurements) (human, UniProt Q9NZQ7); test: kinetic measurements for aPDL1 antibodies; instrument and antigen format not stated
Sequence (Q9NZQ7 19-238 limits assumed): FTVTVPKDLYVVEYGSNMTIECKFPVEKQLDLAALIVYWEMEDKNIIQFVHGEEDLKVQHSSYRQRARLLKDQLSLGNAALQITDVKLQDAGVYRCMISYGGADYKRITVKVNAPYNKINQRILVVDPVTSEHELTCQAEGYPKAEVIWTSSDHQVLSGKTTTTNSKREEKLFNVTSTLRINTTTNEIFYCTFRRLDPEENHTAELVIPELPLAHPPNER

How did the Kd turn out when B1 was run?
Its Kd is 1.03 nM.

Which results are given for B2?
Kd: 913 nM; koff: 0.0113 s⁻¹; kon: 12400 M⁻¹ s⁻¹

For B3, which Kd is on record?
The Kd was 1.91 nM.

What does the source list for B4?
Kd: 0.609 nM; koff: 0.000745 s⁻¹; kon: 1.22e+06 M⁻¹ s⁻¹

What does the source list for B5?
Kd: 8.98 nM; koff: 0.00884 s⁻¹; kon: 984000 M⁻¹ s⁻¹

Which Kd does the source give for B6 here?
The Kd was 873 nM.

What about the koff of the same binder?
Its koff is 0.0115 s⁻¹.

And the kon?
The kon was 13100 M⁻¹ s⁻¹.

Which results are given for B7?
Kd: 41.6 nM; koff: 0.01 s⁻¹; kon: 241000 M⁻¹ s⁻¹

Which Kd does the source give for B8 here?
Its Kd is 0.679 nM.

B9 was tested. Which Kd did it give?
The Kd was 0.461 nM.

What about the koff of the same binder?
The koff was 0.000338 s⁻¹.

And the kon?
Its kon is 733000 M⁻¹ s⁻¹.

For B10, which Kd is on record?
Its Kd is 1.57 nM.

Which Kd does the source give for B11 here?
The Kd was 1.23 nM.

What about the koff of the same binder?
Its koff is 0.000987 s⁻¹.

What about the kon of the same binder?
The kon was 802000 M⁻¹ s⁻¹.

What does the source list for B12?
Kd: 0.287 nM; koff: 0.000367 s⁻¹; kon: 1.28e+06 M⁻¹ s⁻¹

B13 was tested. Which Kd did it give?
Its Kd is 1.16 nM.

With B14 as the binder, how does the Kd read?
The Kd was 0.878 nM.

How did the Kd turn out when B15 was run?
The Kd was 0.669 nM.

What about the koff of the same binder?
The koff was 0.00124 s⁻¹.

What about the kon of the same binder?
The kon was 1.85e+06 M⁻¹ s⁻¹.

B16 was tested. Which Kd did it give?
The Kd was 0.989 nM.

What about the koff of the same binder?
The koff was 0.00133 s⁻¹.

What about the kon of the same binder?
The kon was 1.35e+06 M⁻¹ s⁻¹.

biological target: T1, PD-L1 (on 293T cells stably expressing PD-L1) (human, UniProt Q9NZQ7); test: flow cytometry on 293T cells stably expressing PD-L1, percent of cells labelled, anti-hFc secondary
T1 construct: expressed on the surface of stably transfected 293T cells; also called CD274; B7-H1
T1 sequence (Q9NZQ7 19-290 limits assumed): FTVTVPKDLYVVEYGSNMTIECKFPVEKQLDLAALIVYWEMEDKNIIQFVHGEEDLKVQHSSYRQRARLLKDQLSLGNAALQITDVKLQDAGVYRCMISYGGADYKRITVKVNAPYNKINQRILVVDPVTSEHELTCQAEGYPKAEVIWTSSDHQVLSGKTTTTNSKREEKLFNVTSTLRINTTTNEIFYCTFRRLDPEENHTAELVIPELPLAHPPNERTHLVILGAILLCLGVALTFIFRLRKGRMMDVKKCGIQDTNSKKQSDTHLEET

B1 was tested. Which “EC50 (read off the curve)” value did it give?
The value was 0.2 to 0.3 nM.

With B14 as the binder, how does the “EC50 (read off the curve)” value read?
Its value is about 0.05 nM.

Which “EC50 (read off the curve)” value does the source give for B16 here?
The value was about 0.1 nM.
